Assay results: patent US20250313627A1 (FUSE BIOTHERAPEUTICS, published 2025)

Legend:
[1] = biological target: T1, recombinant His tagged human ROR1 (human, UniProt Q01973 30-403, limits assumed); assay: BLI (Octet), FUSE protein loaded on the biosensor, His tagged ROR1 in solution
T1 construct: Analyte in the BLI assay; also called Human ROR1-His; recombinant ROR1
Method: (§1) As shown in FIGS. 5A-5D, the binding affinities (KD) of TCEs for ROR1 were assessed. We examined the magnitude by which several TCEs and mutants thereof bind to recombinant ROR1. Kinetic binding graphs were generated via Bio-Layer Interferometry (BLI) using an Octet system. For each TCE, the biosensor tips were coated with FUSE proteins at 15 μg/ml and probed with either recombinant His tagged ROR1 at concentrations ranging from 100 pM to 10 μM. […] The binding affinity (KD), on rate (k-on) and off rate (k-dis), are summarized for ROR1 in FIG. 5D.
(§2) Antibodies were prepared in 1×PBS with 0.02% Tween-20 with the final concentration of 15 ug/ml. Human ROR1-His or CD3e-His protein were also prepared, and serial diluted (4-fold dilution ranging from 400 nM to 0.098 nM) in 1×PBS with 0.02% Tween-20. The biosensors were pre-moistened in 200 uL of 1×PBS with 0.02% Tween-20 for 10 minutes. Meanwhile, Octet BLI system (ForteBio) was prewarmed for 30 minutes and the flow rate was set to 1000 rpm. The biosensors (Anti-hIgG Fc Capture biosensor) were soaked in 250 uL of 1×PBS with 0.02% Tween-20 for 60 seconds at 30° C. to get an initial baseline reading. After the 60-second baseline reading, the biosensors were exposed to testing antibody for 300 seconds at 30° C. for the association between antibody and the biosensors (coupling antibody with biosensor). The biosensors with antibody were then exposed to human ROR1 or CD3e in 250 uL of 1×PBS with 0.02% Tween-20 at 30° C. for 300 seconds for the association reaction between antibody and human ROR1 or CD3e (association curve). After 300-second association reaction between antibody and antigen, the biosensors with antibody and antigen were then exposed to 250 uL of 1×PBS with 0.02% Tween-20 at 30° C. for 300 seconds for the dissociation reaction between antibody and […]. The binding affinity was calculated by the built-in data fitting algorithm.

[2] = biological target: T2, human CD3 on T cells (human, UniProt P07766 23-207; P09693 23-182; P04234 22-171; P20963 22-164); assay: flow cytometry on Jurkat T cells, fluorescent secondary antibody to the IgG1 Fc; table row 'Binding EC50 (Kd)'
T2 construct: whole, on cells; also called human CD3 on Jurkat T cells; human CD3 on T cells isolated from human PBMC
Method: (§3) The CD3-specific Fab binding arm is presumed responsible for the observed binding. A Hen Egg Lysozyme (HEL)-specific antibody was used as the negative isotype control. Binding was measured via flow cytometry at various concentrations of test articles using a fluorescently labeled secondary antibody specific for the Fc domain of IgG1. The apparent affinity calculated for each test subject based on the data is shown under each graph. […] Binding to mouse CD3 was not tested because the anti-CD3 clone, 1F3-3, incorporated into the TCE is a humanized variant of clone SP34, which was derived in mouse and is well described as not binding mouse CD3.
(§4) Adherent target cells were collected by brief TrypLE treatment while suspension cells were directly collected. Collected cells were washed once with PBS by centrifugation at 500×g for 5 minutes at room temperature and added to V-bottom 96-well plate (200,000-300,000 cells per well). To prepared Live/Dead fixable red, one vial of powder was dissolved into 50 uL of DMSO to make stock solution and then diluted 1 uL of stock Live/Dead fixable red in 1 mL of PBS to prepare the working solution. 100 uL of Live/Dead fixable red working buffer was then added to the cell in the V-bottom 96-well plate (200,000-300,000 cells per well) and incubated for 15 minutes at room temperature. […] The samples were then analyzed on Cytek flow cytometer.

[3] = biological target: T3, human ROR1 (Receptor Tyrosine Kinase-Like Orphan Receptor 1) on the cell surface (human, UniProt Q01973 30-937); assay: flow cytometry on MDA-MB-231 variants, low ROR1 density; low cell surface density of ROR1
T3 construct: whole, on cells; engineered into B16-F10 (high density) and LS174T (low density) cells; also called B16-F10-ROR1-H; LS174T-ROR1-L
Method: (§5) Binding of 2A11 (black line), 5A1 (dark grey line) and VHH8 (medium grey line) were tested in TCE format 12A. The commercial ROR1 specific Ab reported to bind the ROR1-Ig domain 2A2 (light grey line), served as the positive control and anti-HEL (dotted black line) served as the negative control. To better visualize binding of each test article to the three cells lines, we plotted MFI on the y-axis for each test article for HEK-293 cells (negative control; FIG. 4I), HEK-293 cells transfected with full length human ROR1 (FIG. 4J) and HEK-293 cells transfected with the ROR1 Ig domain linked to the cell surface via the GPI linker from CD59 (FIG. 4K).
as §4

[4] = biological target: T3, human ROR1 (Receptor Tyrosine …); assay: flow cytometry on MDA-MB-231 ROR1 high cells (about 500,000 ROR1 per cell), secondary antibody to the IgG1 Fc
Method: as §5
as §4, with “temperature. After the 15-minute incubation, the cells were washed twice with PBS by centrifugation at 500 g for 5 minutes at room temperature. The cells were then cultured with antibodies at different concentrations in 100 uL of Biolegend staining buffer at 4° C. for 45 minutes. After the 45-minute incubation with primary antibody, the cells were washed with PBS by centrifugation at 500 g for 5 minutes at room temperature. The cells were then cultured with PE-Cy7-conjugated mouse-anti-human IgG secondary antibody in Biolegend staining buffer at 4° C. for 45 minutes.” for “temperature.”

[5] = biological target: T3, human ROR1 (Receptor Tyrosine …); assay: flow cytometry on MDA-MB-231 variants, high ROR1 density; high cell surface density of ROR1
Method: as §5, §4

[6] = biological target: T4, cynomolgus (NHP) CD3 on cynomolgus pan-T cells (cynomolgus); assay: flow cytometry on cynomolgus pan-T cells
T4 construct: whole, on cells; also called cynomolgus CD3
Method: as §3, §4

[7] = biological target: T3, human ROR1 (Receptor Tyrosine …); assay: flow cytometry on MDA-MB-231 ROR1 super high cells (about 2,000,000 ROR1 per cell), secondary antibody to the IgG1 Fc
Method: as §5
as §4, with “temperature. After the 15-minute incubation, the cells were washed twice with PBS by centrifugation at 500 g for 5 minutes at room temperature. The cells were then cultured with antibodies at different concentrations in 100 uL of Biolegend staining buffer at 4° C. for 45 minutes. After the 45-minute incubation with primary antibody, the cells were washed with PBS by centrifugation at 500 g for 5 minutes at room temperature. The cells were then cultured with PE-Cy7-conjugated mouse-anti-human IgG secondary antibody in Biolegend staining buffer at 4° C. for 45 minutes.” for “temperature.”

[8] = biological target: T4, cynomolgus (NHP) CD3 on cynomolgus …; assay: flow cytometry on cynomolgus pan T cells, fluorescent secondary antibody to the IgG1 Fc; table row 'Binding EC50 (Kd)'
Method: as §3, §4

[9] = biological target: T5, mouse ROR1 on mouse 4T1 cells (mouse, UniProt Q9Z139 30-937); assay: flow cytometry on 4T1 cells expressing mouse ROR1
T5 construct: whole, on cells

[10] = biological target: T2, human CD3 on T cells; assay: flow cytometry on human pan T cells (T cells isolated from human PBMC), fluorescent secondary antibody to the IgG1 Fc; table row 'Binding EC50 (Kd)'
Method: as §3, §4

[11] = biological target: T3, human ROR1 (Receptor Tyrosine …); assay: flow cytometry on MDA-MB-231 ROR1 low cells (about 17,000 ROR1 per cell), secondary antibody to the IgG1 Fc
Method: as §5
as §4, with “temperature. After the 15-minute incubation, the cells were washed twice with PBS by centrifugation at 500 g for 5 minutes at room temperature. The cells were then cultured with antibodies at different concentrations in 100 uL of Biolegend staining buffer at 4° C. for 45 minutes. After the 45-minute incubation with primary antibody, the cells were washed with PBS by centrifugation at 500 g for 5 minutes at room temperature. The cells were then cultured with PE-Cy7-conjugated mouse-anti-human IgG secondary antibody in Biolegend staining buffer at 4° C. for 45 minutes.” for “temperature.”

[12] = biological target: T1, recombinant His tagged human ROR1; assay: BLI (Octet), FUSE protein loaded on the biosensor, His tagged ROR1 in solution; column 'kdis(1/s)'
Method: as §1, §2

[13] = biological target: T3, human ROR1 (Receptor Tyrosine …); assay: flow cytometry on MDA-MB-231 ROR1 normal cells (about 35,000 ROR1 per cell), secondary antibody to the IgG1 Fc
Method: as §5
as §4, with “temperature. After the 15-minute incubation, the cells were washed twice with PBS by centrifugation at 500 g for 5 minutes at room temperature. The cells were then cultured with antibodies at different concentrations in 100 uL of Biolegend staining buffer at 4° C. for 45 minutes. After the 45-minute incubation with primary antibody, the cells were washed with PBS by centrifugation at 500 g for 5 minutes at room temperature. The cells were then cultured with PE-Cy7-conjugated mouse-anti-human IgG secondary antibody in Biolegend staining buffer at 4° C. for 45 minutes.” for “temperature.”

T2 sequence (P07766 23-207, chain 1 of 4): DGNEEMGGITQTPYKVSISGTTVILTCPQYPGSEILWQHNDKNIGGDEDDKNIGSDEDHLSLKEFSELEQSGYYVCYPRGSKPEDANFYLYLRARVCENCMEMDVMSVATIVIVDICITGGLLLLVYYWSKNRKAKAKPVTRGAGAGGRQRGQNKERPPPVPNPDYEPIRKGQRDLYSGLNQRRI
T2 sequence (P09693 23-182, chain 2 of 4): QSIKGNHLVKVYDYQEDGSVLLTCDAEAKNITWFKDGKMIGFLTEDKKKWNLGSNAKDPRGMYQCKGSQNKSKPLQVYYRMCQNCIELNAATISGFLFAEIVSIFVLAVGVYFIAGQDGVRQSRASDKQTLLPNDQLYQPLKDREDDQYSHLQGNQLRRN
T2 sequence (P04234 22-171, chain 3 of 4): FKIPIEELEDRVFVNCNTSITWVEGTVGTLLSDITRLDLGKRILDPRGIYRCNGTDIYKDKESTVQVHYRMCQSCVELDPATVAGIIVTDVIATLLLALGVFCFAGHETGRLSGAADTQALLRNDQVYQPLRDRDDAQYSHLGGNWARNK
T2 sequence (P20963 22-164, chain 4 of 4): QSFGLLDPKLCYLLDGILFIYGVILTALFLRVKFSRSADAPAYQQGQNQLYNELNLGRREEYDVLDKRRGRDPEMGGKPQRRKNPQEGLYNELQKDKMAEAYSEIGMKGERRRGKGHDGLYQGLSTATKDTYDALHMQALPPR
T1 sequence (Q01973 30-403 limits assumed): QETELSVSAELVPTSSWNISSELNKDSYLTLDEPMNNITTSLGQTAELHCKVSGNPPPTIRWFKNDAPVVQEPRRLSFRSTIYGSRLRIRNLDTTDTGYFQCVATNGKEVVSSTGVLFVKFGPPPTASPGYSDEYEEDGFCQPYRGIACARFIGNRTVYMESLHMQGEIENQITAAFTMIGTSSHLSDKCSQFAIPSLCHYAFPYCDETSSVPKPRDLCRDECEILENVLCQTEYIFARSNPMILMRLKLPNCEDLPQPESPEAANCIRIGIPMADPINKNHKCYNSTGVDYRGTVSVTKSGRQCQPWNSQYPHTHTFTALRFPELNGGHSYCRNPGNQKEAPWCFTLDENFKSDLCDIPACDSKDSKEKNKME
T3 sequence (Q01973 30-937): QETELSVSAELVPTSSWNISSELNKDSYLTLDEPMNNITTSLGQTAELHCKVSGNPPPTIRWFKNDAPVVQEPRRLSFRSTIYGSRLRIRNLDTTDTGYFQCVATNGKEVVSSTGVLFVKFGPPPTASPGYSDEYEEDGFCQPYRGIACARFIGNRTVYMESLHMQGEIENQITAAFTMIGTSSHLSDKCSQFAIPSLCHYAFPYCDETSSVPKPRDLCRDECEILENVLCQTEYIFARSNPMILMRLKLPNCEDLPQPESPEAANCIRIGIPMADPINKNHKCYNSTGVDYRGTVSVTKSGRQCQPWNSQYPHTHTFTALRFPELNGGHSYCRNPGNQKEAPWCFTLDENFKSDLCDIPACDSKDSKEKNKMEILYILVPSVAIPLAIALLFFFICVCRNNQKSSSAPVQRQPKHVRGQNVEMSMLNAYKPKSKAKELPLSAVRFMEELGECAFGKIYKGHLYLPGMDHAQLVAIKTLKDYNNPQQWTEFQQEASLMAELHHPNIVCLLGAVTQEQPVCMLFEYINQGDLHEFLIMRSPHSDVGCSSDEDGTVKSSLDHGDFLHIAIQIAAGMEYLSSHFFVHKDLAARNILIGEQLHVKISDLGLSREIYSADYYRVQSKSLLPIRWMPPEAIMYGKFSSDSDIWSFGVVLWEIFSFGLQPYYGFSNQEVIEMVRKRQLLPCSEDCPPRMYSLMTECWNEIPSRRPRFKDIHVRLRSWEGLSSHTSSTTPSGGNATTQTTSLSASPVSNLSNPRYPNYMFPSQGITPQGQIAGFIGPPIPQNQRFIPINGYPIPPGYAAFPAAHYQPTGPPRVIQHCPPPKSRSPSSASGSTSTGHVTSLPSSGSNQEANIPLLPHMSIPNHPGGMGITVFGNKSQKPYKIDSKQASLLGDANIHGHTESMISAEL
T5 sequence (Q9Z139 30-937): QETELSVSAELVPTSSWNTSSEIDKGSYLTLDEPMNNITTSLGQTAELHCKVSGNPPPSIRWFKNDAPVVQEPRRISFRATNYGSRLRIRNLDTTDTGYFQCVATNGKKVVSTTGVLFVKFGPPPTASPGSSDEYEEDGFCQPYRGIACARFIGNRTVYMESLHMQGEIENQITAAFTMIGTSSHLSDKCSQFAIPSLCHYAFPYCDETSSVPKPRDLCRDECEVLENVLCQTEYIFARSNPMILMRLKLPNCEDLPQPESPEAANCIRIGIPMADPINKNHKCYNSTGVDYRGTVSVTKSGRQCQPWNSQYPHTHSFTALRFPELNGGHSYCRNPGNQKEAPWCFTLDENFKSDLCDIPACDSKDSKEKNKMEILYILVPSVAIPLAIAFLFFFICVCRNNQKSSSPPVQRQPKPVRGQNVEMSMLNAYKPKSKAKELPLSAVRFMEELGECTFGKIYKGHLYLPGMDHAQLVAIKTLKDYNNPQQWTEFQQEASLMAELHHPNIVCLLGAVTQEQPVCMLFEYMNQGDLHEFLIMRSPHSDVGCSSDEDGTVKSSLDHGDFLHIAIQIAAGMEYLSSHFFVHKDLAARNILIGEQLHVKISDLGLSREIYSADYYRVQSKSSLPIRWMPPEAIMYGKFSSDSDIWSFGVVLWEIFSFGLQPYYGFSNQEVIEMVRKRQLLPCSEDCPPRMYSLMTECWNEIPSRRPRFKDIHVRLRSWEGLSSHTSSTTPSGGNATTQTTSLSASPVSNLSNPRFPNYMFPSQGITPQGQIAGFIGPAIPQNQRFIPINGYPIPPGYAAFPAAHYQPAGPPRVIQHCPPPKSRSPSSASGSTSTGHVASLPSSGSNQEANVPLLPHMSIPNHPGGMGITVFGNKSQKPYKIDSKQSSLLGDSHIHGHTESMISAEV

B1: FUSE-393 (bispecific antibody, human IgG1, lambda, L234A L235A)
chain: QVQLQESGGGSVQAGGSLKLSCTASGYTNRLKCMGWFRQAPGKEREEIATISTGTGNTYYADSVKGRFTFSQDKVKNTVYLQMNTLKPDDTGMYYCAADVRPDGTTCHYNSGGQGTQVTVSSGGGGSGGGGSGGGGSQVQLQESGGGSVQAGGSLKLSCTASGYTNRLKCMGWFRQAPGKEREEIATISTGTGNTYYADSVKGRFTFSQDKVKNTVYLQMNTLKPDDTGMYYCAADVRPDGTTCHYNSGGQGTQVTVSSEPKSSDKTHTCPPCPAPEAAGGPSVFLFPPKPKDTLMISRTPEVTCVVVDVSHEDPEVKFNWYVDGVEVHNAKTKPREEQYNSTYRVVSVLTVLHQDWLNGKEYKCKVSNKALPAPIEKTISKAKGQPREPQVYTLPPSREEMTKNQVSLSCAVKGFYPSDIAVEWESNGQPENNYKTTPPVLDSDGSFFLVSKLTVDKSRWQQGNVFSCSVMHEALHNRFTQKSLSLSPGK
heavy: EVQLVESGGGLVQPGGSLRLSCAASGFTFSTYAMNWVRQAPGKGLEWVARIRSKYNNYATYYADSVKDRFTISRDDSKNTLYLQMNSLRAEDTAVYYCARHGNFGNSYVSWFAYWGQGTMVTVSSASTKGPSVFPLAPSSKSTSGGTAALGCLVKDYFPEPVTVSWNSGALTSGVHTFPAVLQSSGLYSLSSVVTVPSSSLGTQTYICNVNHKPSNTKVDKKVEPKSCDKTHTCPPCPAPEAAGGPSVFLFPPKPKDTLMISRTPEVTCVVVDVSHEDPEVKFNWYVDGVEVHNAKTKPREEQYNSTYRVVSVLTVLHQDWLNGKEYKCKVSNKALPAPIEKTISKAKGQPREPQVYTLPPSREEMTKNQVSLWCLVKGFYPSDIAVEWESNGQPENNYKTTPPVLDSDGSFFLYSKLTVDKSRWQQGNVFSCSVMHEALHNHYTQKSLSLSPGK
light: QAVVTQEPSLTVSPGGTVTLTCRSSTGAVTTSNYANWVQQKPGQAPRGLIGGTNKRAPGTPARFSGSLLGGKAALTLSGVQPEDEAEYYCALWYSNLWVFGGGTKLTVLGQPKAAPSVTLFPPSSEELQANKATLVCLISDFYPGAVTVAWKADSSPVKAGVETTTPSKQSNNKYAASSYLSLTPEQWKSHRSYSCQVTHEGSTVEKTVAPTECS
notes: Hole chain: 5A1-linker-5A1-Fc; knob chain: anti-CD3 Fab heavy chain-Fc; anti-CD3 light chain; also called format 11A incorporating the 5A1 ROR1-specific VHH
- Kd [1]: 21.8 nM
- kon [1]: 21500 M⁻¹ s⁻¹
- EC50 [2]: 3.34 nM
- EC50 [3]: ~300 nM
- EC50 [4]: 26.5 nM
- EC50 [5]: ~15 nM
- fold difference in apparent binding affinity, cynomolgus against human CD3 [6]: < 2 fold
- EC50 [7]: 16.3 nM
- EC50 [8]: 3.04 nM
- binding result [9]: no binding
- EC50 [10]: 4.45 nM
- EC50 [11]: 288 nM
- koff [12]: 0.000468 s⁻¹
- EC50 [13]: 281 nM

B2: FUSE-394 (bispecific antibody, human IgG1, lambda, L234A L235A)
chain: QVQLQESGGGSVQAGGSLKLSCTASGYTNRLKCMGWFRQAPGKEREEIATISTGTGNTYYADSVKGRFTFSQDKVKNTVYLQMNTLKPDDTGMYYCAADVRPDGTTCHYNSGGQGTQVTVSSEPKSSDKTHTCPPCPAPEAAGGPSVFLFPPKPKDTLMISRTPEVTCVVVDVSHEDPEVKFNWYVDGVEVHNAKTKPREEQYNSTYRVVSVLTVLHQDWLNGKEYKCKVSNKALPAPIEKTISKAKGQPREPQVYTLPPSREEMTKNQVSLSCAVKGFYPSDIAVEWESNGQPENNYKTTPPVLDSDGSFFLVSKLTVDKSRWQQGNVFSCSVMHEALHNRFTQKSLSLSPGK
heavy: B1 heavy
light: QAVVTQEPSLTVSPGGTVTLTCRSSTGAVTTSNYANWVQQKPGQAPRGLIGGTNKRAPGTPARFSGSLLGGKAALTLSGVQPEDEAEYYCALWYSNLWVFGGGTKLTVLGQPKAAPSVTLFPPSSEELQANKATLVCLISDFYPGAVTVAWKADSSPVKAGVETTTPSKQSNNKYAASSYLSLTPEQWKSHRSYSCQVTHEGSTVEKTVAPTECSGGGGSGGGGSGGGGSGGGGSQVQLQESGGGSVQAGGSLKLSCTASGYTNRLKCMGWFRQAPGKEREEIATISTGTGNTYYADSVKGRFTFSQDKVKNTVYLQMNTLKPDDTGMYYCAADVRPDGTTCHYNSGGQGTQVTVSS
notes: Hole chain: 5A1-Fc; knob chain: anti-CD3 Fab heavy chain-Fc; light chain: anti-CD3 light chain-linker-5A1; also called format 13cA incorporating the 5A1 ROR1-specific VHH
- Kd [1]: 56.9 nM
- kon [1]: 28700 M⁻¹ s⁻¹
- EC50 [2]: 10.6 nM
- EC50 [3]: ~100 nM
- EC50 [4]: 19.5 nM
- EC50 [5]: ~5 nM
- fold difference in apparent binding affinity, cynomolgus against human CD3 [6]: < 2 fold
- EC50 [7]: 6.1 nM
- EC50 [8]: 7.46 nM
- binding result [9]: no binding
- EC50 [10]: 10.5 nM
- EC50 [11]: 69.7 nM
- koff [12]: 0.00163 s⁻¹
- EC50 [13]: 154 nM
